Reference: article PMC5678105, “Engineering DNA Backbone Interactions Results in TALE Scaffolds with Enhanced 5-Methylcytosine Selectivity”

B1: 9a_26 5mC (dsDNA)
DNA 1: GGCCAGCCAGTCAGCCGAAGGCTCCATGCTGCTCCCCGCCGCCGGC
DNA 2: GCCGGCGGCGGGGAGCAGCATGGAGCCTTCGGCTGACTGGCTGGCC
modifications: 5mC at strand 1 nt 16 (site position 5, T = 0)
B2: 9a_26 C (dsDNA)
DNA 1: B1 DNA 1
DNA 2: B1 DNA 2

Assays:
GFP-TALE_9a_26 WT [1] = biological target: T1, GFP-TALE_9a_26 WT (Xanthomonas axonopodis scaffold …); test: EMSA; 5mC vs C DNA; EMSA: 20 mM Tris pH 8, 50 mM NaCl, 5 mM MgCl2, 5% glycerol; 0.1 pmol TALE + 0.5 pmol duplex in 10 uL; RT 30 min then ice 30 min; gel 0.5x TAE 4 C; GFP readout; conditions: protein: recombinant; tags: N-terminal GFP; C-terminal His6; blunt
GFP-TALE_9a_26 WT [2] = biological target: T1, GFP-TALE_9a_26 WT; test: EMSA; EMSA: 20 mM Tris pH 8, 50 mM NaCl, 5 mM MgCl2, 5% glycerol; 0.1 pmol TALE + 0.5 pmol duplex in 10 uL; RT 30 min then ice 30 min; gel 0.5x TAE 4 C; GFP readout; conditions: protein: recombinant; tags: N-terminal GFP; C-terminal His6; blunt

| Binder | binding signal (GFP-TALE_9a_26 WT [1]) | binding result (GFP-TALE_9a_26 WT [2]) |
| --- | --- | --- |
| B1 | 2 fold C over 5mC selectivity |  |
| B2 |  | binds |
